Measured values reported in article PMC3923129.

Target: sigmaA-RNAP holoenzyme (housekeeping RNA polymerase) (Bacillus subtilis) (UniProt P20429+P37870+P37871+P06224)
Experiment: EMSA

sigmaA-RNAP holoenzyme (housekeeping RNA polymerase) (Bacillus subtilis), sequence (P20429 whole entry, chain 1 of 4): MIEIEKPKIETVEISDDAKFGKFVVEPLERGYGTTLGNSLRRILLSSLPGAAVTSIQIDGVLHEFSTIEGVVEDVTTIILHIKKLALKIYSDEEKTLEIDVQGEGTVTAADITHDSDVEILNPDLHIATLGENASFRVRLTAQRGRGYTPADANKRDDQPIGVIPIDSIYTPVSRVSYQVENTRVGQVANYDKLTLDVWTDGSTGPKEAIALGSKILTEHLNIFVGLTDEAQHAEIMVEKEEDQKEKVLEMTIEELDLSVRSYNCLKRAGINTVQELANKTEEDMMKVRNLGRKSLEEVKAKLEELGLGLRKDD
sigmaA-RNAP holoenzyme (housekeeping RNA polymerase) (Bacillus subtilis), sequence (P37870 whole entry, chain 2 of 4): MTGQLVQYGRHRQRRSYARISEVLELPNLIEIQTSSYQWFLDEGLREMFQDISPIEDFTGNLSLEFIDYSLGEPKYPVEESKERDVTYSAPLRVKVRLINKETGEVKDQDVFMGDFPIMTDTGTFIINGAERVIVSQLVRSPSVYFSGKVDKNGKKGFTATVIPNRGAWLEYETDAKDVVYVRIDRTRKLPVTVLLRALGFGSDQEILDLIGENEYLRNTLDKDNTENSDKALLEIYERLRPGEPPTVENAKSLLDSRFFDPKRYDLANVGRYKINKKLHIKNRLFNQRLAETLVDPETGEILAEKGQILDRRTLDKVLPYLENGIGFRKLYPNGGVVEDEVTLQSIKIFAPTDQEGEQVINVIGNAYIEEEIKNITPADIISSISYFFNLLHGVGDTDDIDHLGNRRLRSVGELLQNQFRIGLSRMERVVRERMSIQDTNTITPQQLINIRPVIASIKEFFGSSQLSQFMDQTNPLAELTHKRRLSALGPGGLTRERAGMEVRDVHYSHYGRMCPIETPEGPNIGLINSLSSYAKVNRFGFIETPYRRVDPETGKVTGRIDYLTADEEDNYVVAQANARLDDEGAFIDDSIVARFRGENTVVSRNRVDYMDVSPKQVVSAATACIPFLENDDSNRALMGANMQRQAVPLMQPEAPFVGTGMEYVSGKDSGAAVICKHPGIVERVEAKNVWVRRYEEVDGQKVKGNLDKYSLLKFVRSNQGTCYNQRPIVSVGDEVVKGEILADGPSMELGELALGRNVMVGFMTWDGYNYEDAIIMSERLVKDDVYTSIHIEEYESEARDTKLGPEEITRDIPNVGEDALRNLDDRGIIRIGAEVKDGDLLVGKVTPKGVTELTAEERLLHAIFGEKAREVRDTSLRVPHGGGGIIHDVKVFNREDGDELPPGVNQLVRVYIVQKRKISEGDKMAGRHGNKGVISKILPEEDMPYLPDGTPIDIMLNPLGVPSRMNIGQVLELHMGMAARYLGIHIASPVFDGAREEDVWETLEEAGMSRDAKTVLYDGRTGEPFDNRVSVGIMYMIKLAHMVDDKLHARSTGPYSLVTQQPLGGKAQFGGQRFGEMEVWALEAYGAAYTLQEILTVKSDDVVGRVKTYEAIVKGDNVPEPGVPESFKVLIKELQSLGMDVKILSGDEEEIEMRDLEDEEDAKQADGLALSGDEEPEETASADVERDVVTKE
sigmaA-RNAP holoenzyme (housekeeping RNA polymerase) (Bacillus subtilis), sequence (P37871 whole entry, chain 3 of 4): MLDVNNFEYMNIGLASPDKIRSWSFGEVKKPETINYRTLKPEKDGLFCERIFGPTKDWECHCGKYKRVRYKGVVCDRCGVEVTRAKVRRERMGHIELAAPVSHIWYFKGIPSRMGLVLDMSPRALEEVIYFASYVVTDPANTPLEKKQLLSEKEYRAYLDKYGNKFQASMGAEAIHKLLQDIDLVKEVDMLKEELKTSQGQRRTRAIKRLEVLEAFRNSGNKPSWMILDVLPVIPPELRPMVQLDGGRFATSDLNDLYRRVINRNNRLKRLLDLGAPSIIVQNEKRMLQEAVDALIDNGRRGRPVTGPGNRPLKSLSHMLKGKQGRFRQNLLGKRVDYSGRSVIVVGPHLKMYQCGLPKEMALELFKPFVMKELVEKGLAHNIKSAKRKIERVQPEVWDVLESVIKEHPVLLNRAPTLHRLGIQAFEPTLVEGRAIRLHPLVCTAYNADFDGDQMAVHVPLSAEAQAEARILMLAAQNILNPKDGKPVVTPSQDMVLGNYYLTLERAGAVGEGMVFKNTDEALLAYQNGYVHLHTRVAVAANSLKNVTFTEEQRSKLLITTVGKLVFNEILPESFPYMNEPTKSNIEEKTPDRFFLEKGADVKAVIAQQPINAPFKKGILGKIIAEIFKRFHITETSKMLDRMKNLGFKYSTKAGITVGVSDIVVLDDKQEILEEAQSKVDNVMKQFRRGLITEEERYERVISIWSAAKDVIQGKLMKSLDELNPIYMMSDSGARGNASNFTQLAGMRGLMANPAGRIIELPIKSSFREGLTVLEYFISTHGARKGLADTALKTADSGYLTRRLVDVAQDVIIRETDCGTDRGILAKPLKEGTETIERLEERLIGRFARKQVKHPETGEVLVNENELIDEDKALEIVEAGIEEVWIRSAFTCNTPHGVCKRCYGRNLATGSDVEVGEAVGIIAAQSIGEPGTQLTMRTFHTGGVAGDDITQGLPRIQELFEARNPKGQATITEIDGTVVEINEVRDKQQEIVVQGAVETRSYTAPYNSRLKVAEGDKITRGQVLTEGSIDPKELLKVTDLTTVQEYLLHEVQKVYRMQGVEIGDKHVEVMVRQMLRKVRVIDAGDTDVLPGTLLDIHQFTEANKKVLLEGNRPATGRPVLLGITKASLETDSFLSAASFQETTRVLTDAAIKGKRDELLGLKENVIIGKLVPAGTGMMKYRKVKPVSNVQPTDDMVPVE
sigmaA-RNAP holoenzyme (housekeeping RNA polymerase) (Bacillus subtilis), sequence (P06224 whole entry, chain 4 of 4): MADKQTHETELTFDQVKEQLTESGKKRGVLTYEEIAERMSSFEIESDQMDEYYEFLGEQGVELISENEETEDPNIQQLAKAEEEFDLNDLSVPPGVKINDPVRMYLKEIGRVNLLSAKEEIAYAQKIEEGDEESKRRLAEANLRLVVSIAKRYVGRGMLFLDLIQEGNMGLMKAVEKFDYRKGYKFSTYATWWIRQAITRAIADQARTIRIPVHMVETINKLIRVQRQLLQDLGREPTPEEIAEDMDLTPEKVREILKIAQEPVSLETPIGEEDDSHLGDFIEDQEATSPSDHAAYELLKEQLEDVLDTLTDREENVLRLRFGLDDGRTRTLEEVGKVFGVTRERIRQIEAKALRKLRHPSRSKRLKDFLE

Substance	Kd [nM]
6S-1 RNA	100
6S-2 RNA	135
